Assay results as given in the DeepSol protein solubility set.

Assay: soluble on expression in E. coli; label from the status in PepcDB or PDB records

| Sequence | soluble on expression in E. coli |
| --- | --- |
| MGSDKIHHHHHHMAIVNRIALDLAKDFIQVLALDENEQEVFNKKLRSNKVLAKLATLSRTDDCEVAVESCGMSHYWRRECEKLGYKTVALPPRFVKAYLQGEKNDANDARAIAEAASRPNRQTVRLKSIEQQDLALMVNQREGFVQTRTQFSNRLRGQLAEYGILLPKRVGTILQRVPEVLEDDSNALTLQSRDLINRLYQMLRAVDEEVKALDKHLATQAERNEDSQRLMTLPGIGPITATSLLALIGDVSEFKRGRNLSEYLGLVPRQNSSGGKDRLGGITKKGNTKLRTLLVHGARSALRVAQQRHDRLSLWAQDVAKRRGNNVAAVALANKHARIIWAMLKNKEDYRMTAA | not soluble |
| MKKIAIFGSAFNPPSLGHKSVIESLSHFDLVLLEPSIAHAWGKNMLDYPIRCKLVDAFIKDMGLSNVQRSDLEQALYQPGQSVTTYALLEKIQEIYPTADITFVIGPDNFFKFAKFYKAEEITERWTVMACPEKVKIRSTDIRNALIEGKDISTYTTPTVSELLLNEGLYRETLSGK | soluble |
| MKAKTLGELRRTYPLEKLRRTVKDEARENLREKLRRGERLFPGIHGYEDTVIPALVQAILAKQNFILLGTRGQAKSRILRSLTSLLDEEVPALATELRDNPLHPISPEGKRLLEEAGDDAPIVWLSREDRYVEKLATPDTTVADLLGDMDPIKAARRGTGMADLESIHYGLLPRANRGIFAVNELADLAPKVQVALFNILEEGDVQIRGYPLRLPLDVWLVFTANPQDYTARGRIVTPLKDRIGSEIRTHYPRSLEEGARISAQEAYVPEGVLVPEWVRLSVEAVAFVAREDRRVDQTAGVSQRLAISLLEVVAASAERRALLHGGRPVARPLDLYQGLPAITGKLELEYEGELQGAERVAREIVQRAFGLVLPRYRLRTEPIVAHFEEGNLLTLPEGDVEEALKAMAGVPGLLEAARALAEGEAPEVLLSAGEFVLEGLVGRRKLSRGEATYQAAERPRSYGN | soluble |
| MSLKPNIQFEITGASRILPASGPITNLEILKNFPRTADKSQGFLEKFAEKIGEEFGFHTRYWCHKPWESLDNSRELSSESLAMQAVDKLITHSMSKDVDAFLLGSTTNKRFTGSQAAAVLGNLKLNAPAYDLKTGCSTSLSTLHFAYALMALGYQKILVCCSETLSKVIDPENEKTWIGLADGAASLLLEKSKEGSFTIEKSFFSTDGQYVNAFTTQGVFPPTHEQIDSVGYHLVGDETLMKELAYSRYMQMLDHLLPTEKEKNEITWVIPHQVNRKLIDQVLHENNLNNKIIIWDADTIGNIGGASVLYTLARAVEEKLFDRSGKILLMSVGGGLSYAGQVLNYQEGHHHHHH | soluble |
| MGAIQFQTAPKLPVTVLLAAKNEAVNLPRCLAALGPAERVIVLDSHSTDATAEIARQHGAEVAQFDYRGGYPKKRQWALDTIPFGTPWILLLDADEVVPEDLWKEIGNVTRQPDADAYLITKGFHFLGRKFKHGGFSHSAVLLFKTGMARFEKLFDDDLNGLDMEIHERVVVDGRIGKLKTPLVHEDFKGLEAYITRHNKYSTWEAKVRHHYLTTGRYGEQTIKPRLFGNSQERRRFLKALIIRLPFEPQIWFIYHYLLRLGFLEGRPGLIASQIRAAYIAQARAKIYELRLNTPSRLEHHHHHH | not soluble |
| LRVRKAIIPAAGLGTRFLPATKAQPKEMLPIVDKPTIQYIVEEAIKSGIEDIIIISGRSKRAIEDHFDKSYELEQELEKKGNHDLLKLVQDISNLANIHYIRQKEAKGLGHAIYCAKSFIGNEPFAVLLGDDIVDSEVPCIKQLMDVYDKYRTTVLGVQKVPEDQVSKYGIVGGEIVSDRVYKVKDLVEKPDTASAPSNIAILGRYIITPRIFDYLENAKPGKGGEIQLTDALRELMGEEEMYAYDFIGKRYDVGNKLGFLQATVEFALARDDLKEEFEAYLKEIICKL | soluble |
| MGSDKIHHHHHHMKSIEELYKRALELKNKGMSDKEISTELHLSVNTVTWLLSKEFLKEGAVQDVKIGWRSVGVFGSRIISIAEIMSDIIREEMNKNSFEVDSILGIAINGIPYATLVSYLMDKELIVYRPHPARKEGVFSSNFASVEGKRVVIIDDVASTGETMRRTITDVTKEGGKPVLCVLLASKMSVNDLNGVPVRSLIRTQVIGGS | not soluble |
| MTTVTVTTEIPPRDKMEDNSALYESTSAHIIEETEYVKKIRTTLQKIRTQMFKDEIRHDSTNHKLDAKHCGNLQQGSDSEMDPSCCSLDLLMKKIKGKDLQLLEMNKENEVLKIKLQASREAGAAALRNVAQRLFENYQTQSEEVRKKQEDSKQLLQVNKLEKEQKLKQHVENLNQVAEKLEEKHSQITELENLVQRMEKEKRTLLERKLSLENKLLQLKSSATYGKSCQDLQREISILQEQISHLQFVIHSQHQNLRSVIQEMEGLKNNLKEQDKRIENLREKVNILEAQNKELKTQVALSSETPRTKVSKAVSTSELKTEGVSPYLMLIRLRK | not soluble |
